Experimental data published in publication PMC10979513 (Progress in neurobiology, 2024).

Biological target: T1, recombinant μ4 C-terminal domain (human, residues 160–453) (human, UniProt O00189 160-453)
T1 sequence (looked up): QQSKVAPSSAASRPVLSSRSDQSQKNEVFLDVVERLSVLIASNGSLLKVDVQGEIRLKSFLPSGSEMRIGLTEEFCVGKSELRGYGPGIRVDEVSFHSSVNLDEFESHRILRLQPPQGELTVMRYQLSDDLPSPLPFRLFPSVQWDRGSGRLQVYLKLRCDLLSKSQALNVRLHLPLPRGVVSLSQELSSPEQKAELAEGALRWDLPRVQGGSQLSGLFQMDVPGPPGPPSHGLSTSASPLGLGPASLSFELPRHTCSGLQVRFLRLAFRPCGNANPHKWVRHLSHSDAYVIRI
Experiment: ITC

B1: ApoER2 peptide YPAAISSFDR (peptide)
peptide: YPAAISSFDR
Kd: 26.2 µM
